Assay results as given in patent US11110182B2, “Multifunctional RNA nanoparticles and methods for treating cancer and therapeutic resistant cancer” (University of Cincinnati, priority 2016, dated 2021).

Test: Hydrodynamic size by dynamic light scattering (DLS)
Assay type: physicochemical
Experimental: Cell culture. Human breast cancer luciferase-overexpressing BT474 and MDA-MB-231 cells were maintained in DMEM medium (Hyclone, Thermo Scientific) supplemented with 10% fetal bovine serum (FBS, Sigma) and 1% penicillin/streptomycin (Corning) at 37° C. in a humidified atmosphere with 5% CO2.^53 • Generation of pRNA nanoparticles. The two strands of pRNA were synthesized with the DNA templates, which were amplified with overlapping primers (Sigma) by PCR methods, using a T7 promoter-controlled in vitro RNA transcription system as previously described^33 (Table 1). […] The hydrodynamic diameter and Tm value of pRNA nanoparticles were determined using dynamic light scattering and TGGE assay, respectively, as previously described.^54 The AFM imaging of the pRNA nanoparticles was performed at the University of Nebraska Medical Center imaging facility as previously reported.^55 Briefly, the pRNA nanoparticles (5 μL) were deposited on APS modified mica ^56 for a total of 2 min of incubation time. […] After washing three times with PBS, the cellular uptake of pRNAs was determined using a BD LSRFortessa™ flow cytometer. • Real-time PCR. […] The expression of MED 1, TFF1, c-Myc, cyclinD1 and MMP-9 was analyzed using GAPDH as the internal reference. • Western blot analyses. […]

B1: pRNA-HER2apt-siMED1: 3-WJ pRNA nanoparticle bearing a HER2-targeting RNA aptamer and two different MED1 siRNAs; strands p1 SEQ ID NO: 3, p2 SEQ ID NO: 4 (nucleic acid)
chain 1: GGACAGUGAAAGUGAGUCAAAGGAUCAAUCAUGGCCAAAGAUGUUACUUUGAGAGCCUU
chain 2: GGCUCUCAAAGUAACAUCUAAGGCCAUGUGUAUGUGGGGGGAGGACGAUGCGGUCUGCUGUGCUUGAUAUGCCCCAGACGACUCGCCCCCCACAUACUUUGUUGAUCCAAUGACUCACUUUCACUGUCCUU
modifications: 2'-F modification; third strand may lack entry; pRNA-HER2apt-siMED1, p1; pRNA-HER2apt-siMED1, p2
For B1, the hydrodynamic size was 8.68±1.87 nm.
